T1: extracellular domain of hIFNgR2 (human, UniProt P38484 28-247)
T1 construct: also called hIFNgR2 ECD; hIFNgR2-ECD
T1 sequence: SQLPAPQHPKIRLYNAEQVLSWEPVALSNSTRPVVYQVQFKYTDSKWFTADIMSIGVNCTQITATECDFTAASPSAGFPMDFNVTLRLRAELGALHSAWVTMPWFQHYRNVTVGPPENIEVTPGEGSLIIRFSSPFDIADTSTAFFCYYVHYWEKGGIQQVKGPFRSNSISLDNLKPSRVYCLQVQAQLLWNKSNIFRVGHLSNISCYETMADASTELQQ

T2: extracellular domain of mIFNgR2 (mouse)
T2 construct: also called mIFNgR2 ECD; mouse IFNgR2 extracellular domain
T2 chain: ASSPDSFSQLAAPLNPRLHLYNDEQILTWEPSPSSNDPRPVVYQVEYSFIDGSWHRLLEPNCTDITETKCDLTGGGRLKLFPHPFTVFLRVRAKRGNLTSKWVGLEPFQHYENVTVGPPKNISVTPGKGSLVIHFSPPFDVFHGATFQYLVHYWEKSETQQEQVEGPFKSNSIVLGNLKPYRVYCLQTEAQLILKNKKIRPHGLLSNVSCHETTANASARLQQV

B1: DR927 (VHH)
VHH: QVQLVESGGGLVQAGGSLRLSCAASGRTFTSYAMNWFRQAPGKEREFVAAISWSSGNTYVADSVKGRFAISRDKAKNTMYLQMNSLAPEDTAVYYCAATTIATMSDEYTYWGQGTQVTVSS
B2: DR936 (VHH)
VHH: EVQLVESGGGLVQAGGSLRLSCAASGRTFSSVAMAWFRQAPGKEREFVSAISSGGGSTDYADSVKGRFTISKDNAKNTMYLQMDSLKPEDTAVYYCAARDYSSRRYYQSRYEYDLWGLGTQVTVSS
B3: DR937 (VHH)
VHH: QVQLVESGGGLVQPGGSLRLSCAASGRTFRSYSMGWFRQAPGKEREFVAAISWYSGTTYYADPVKGRFTISRDDAKNTLYLQMNSLKPEDTAVYYCAANEIATMESSNDYWGQGTQVTVSS
B4: DR938 (VHH)
VHH: QVQLVESGGGLVQPGGSLRLSCTASGRPRTTYAMGWFRQAPGKEREIVAAISKAGGSTYVADSAKGRFAISKDNAKNTVYLQMNSLKPEDTAVYYCAARAGFAAQIFEYDYWGQGTLVTVSS
B5: DR939 (VHH)
VHH: EVQLVESGGGLVQAGGSMRLSCANSGRTFGTYAMGWFRQSPGKERERVASIDRDGSMSYYADSVKGRFTISGDNAKNTVYLQMNSLKPEDTAVYYCAASRRAVISLQTVDYWGQGTQVTVSS
B6: DR940 (VHH)
VHH: EVQLVESGGRLVQTGGSLRLSCAASGRTFSNYAMGWFRQAPGKEREFVAAISWYSGNTYYADSVKGRFTISRDNAKNTMYLQMNSLKPEDTAVYYCAANQIATMISVGDYWGQGTLVTVSS
B7: DR941 (VHH)
VHH: QVQLVESGGGLVEAGGSLRLACAASGSIFRLNLMGWYRQAPGKQRELVAHVGTTGNTAYADSVKGRFTISKDDAKNMVFLQMNSLKPEDTAVYYCYADRWGQFSWGQGTQVTVSS
B8: DR942 (VHH)
VHH: QVQLVESGGGLVQAGGSLRLSCVASGRTFTGYAMGWFRQAPGKEREFVAVITWSGATTYYSASVKGRFTLSRDNAKNTVYLQMNSLKSEDTAVYYCAIRIRDGVSPENPNEYGYWGQGTQVTVSS
B9: DR943 (VHH)
VHH: QVQLVESGGGLVQAGGSLRLSCVASGRTVGYGMAWFRQAPGKQRDVVAAITWSGTSTYYPDSVKGRFTISRDNAKNTMYLQMSSLKPEDTAVYYCAAGSRRRVGVDVGGYDYWGQGTQVTVSS
B10: DR944 (VHH)
VHH: QVQLVESGGGLVQAGDSLRLSCAASGRTFTFSTHNMGWFRQAPGKEREFVGGIMWTSRASYADSVKGRFTVSRDNAKNTVYLQMNSLKPEDTAVYYCAAAWYGNSGASYDYWGQGTQVTVSS
B11: DR945 (VHH)
VHH: LVESGGGLVQLVQAGGSLRLSCAASGRTFSGYNMGWFRQAPGKEREFVAAIAWAGSRTYYTDSVKGRFTISRDNAKNTMYLQMNTLRPEDTAVYYCAAHDETYYRLDRVDLYTHWGQGTQVTVSS
B12: DR928 (VHH)
VHH: QVQLVESGGGLVQAGGSLRLSCAASGRTFSNYRMGWFRQAPGKEREFVAAISRGGGTTLYADSVKGRFTISRDNAKNTVDLQMNRLKPEDTAVYFCAAGDFSTTWDEYNYWGQGTQVTVSS
B13: DR946 (VHH)
VHH: QVQLVESGGGLVQPGESLRLSCAASGPFTRYAMGWFRQAPGKEREFVAAISWSSGNTYYVDSVKGRFTISRDNAKNTMYLQMNSLKPEDTAVYYCAANEVATMSGPDDYWGQGTQVTVSS
B14: DR947 (VHH)
VHH: QVQLVESGGGLVQAGGSLRLSCAASGGSFGRYTMGWYRQAPGKEREFVAVISWSGTNTYYADSVKGRFTISRDNAKNTMYLQMNDLKPEDTAVYYCAARETYYSHWDERMEYDYWGQGTQVTVSS
B15: DR948 (VHH)
VHH: QVQLVESGGGLVQAGDSLRLSCVASGSIDSSYYVSWFRQAPGKERDLVAAINWGDSRTAYADSVKGRFTISRDNAKNTVYLQMHSLRPNDTAVYYCASRIGLGGPVVAAPTRYPYWGQGTLVTVSS
B16: DR949 (VHH)
VHH: QVQLVESGGGLVQAGGSLRLSCAASESILRFNVMSWLRQAPGKQRELVAVITSGGSTNYADSVKGRFTISRDNAKNTVYLQMNSLKPEDTAVYYCAADESGQYYWGQGTQVTVSS
B17: DR950 (VHH)
VHH: QVQLVESGGGLVQAGGSLRLSCAASGLTTSSAALAWFRQAPGKERELDPTITSGGGSTYYADSVKGRFTISKDNAKNTLYLQMSSLKPEDTAVYYCAARFYSTTYYYREHEYSDWGQGTQVTVSS
B18: DR951 (VHH)
VHH: QVQLVESGGGLVQAGGSLRLSCAASGRTFGTSFGSLSMGWFRQAPGKEREFVAAISRNIGRTYYADSVKDRFTISRDNAKNTASLQMNSLEPEDTAVYNCAATNSYDDLRRSYAYDYWGQGTQVTVSS
B19: DR952 (VHH)
VHH: QVQLVESGGGLVQAGGFLRLSCAASGRTFSSLAMAWFRQAPGKEREFVAAISRSGGSTDYADSVKGRFTISRDNAKSTLYLQMSSLKPEDTAVYYCAARDYSTLQYYNEYEYSDWGQGTLVTVSS
B20: DR953 (VHH)
VHH: QVQLVESGGGLVQAGDSLRLSCAASGPTFSTYAMAWFRQAPGKEREFVAAITQSGRTTYYEDSVKGRFTISKDNAKNTLYLQMNSLQPEDTAVYYCAARDLWSDSPDDWRIYSFWGQGTQVTVSS
B21: DR954 (VHH)
VHH: QVQLVESGGGLVQAGGSLRLSCAAARRTLHNFAMAWFRQAPGKEREFVAAISKGGGSADYADSVKGRFTISRDNAKNTVYLQMNSLKPEDTAVYYCAANDLASYSDSSYTSTSRYDYWGQGTQVTVSS
B22: DR955 (VHH)
VHH: QVQLVESGGGLVQTGGSLRLSCAASGRTFSSYAMAWFRQAPGKEREFVAAISILGGSADYEDSVQGRFTISRDNAKNTMYLQMNSLKPEDTAVYYCAARRPAPSDSYWSSTSYAYWGQGTLVTVSS
B23: DR929 (VHH)
VHH: QVQLVESGGGLVQAGGSLRLSCVASGRTFSSYAMGWFRQTPGKEREFVSAISRGGGSTDYADSVKGRFTISRDNAKNTVYLQMNNLKSEDTAVYYCALRAYSGRYYQFLEYDYWGQGTQVTVSS
B24: DR956 (VHH)
VHH: EVQLVESGGGLVQAGGSLRLSCAASGRTFSSLAMAWFRQAPGKEREFVAATTILGGSADYGDPVKGRFTISRDNAKNTVYLQMNSLKPEDTAVYYCTGRRPAPSDNYWSPASYAYWGQGTQVTVSS
B25: DR957 (VHH)
VHH: QVQLVESGGGLVQAGGSLRLSCAPSGRTFSSYAMAWFRQPPGKEREFVAAITVSGASTYYADSVKGRFTISRDNAKNSMYLQMNSLKPEDTAVYYCAAGGPGTIFPDYDYWGQGTQVTVSS
B26: DR958 (VHH)
VHH: QVQLVESGGGLVQAGDSLTLSCTASGRTFSGYNMGWFRQAPGKERDFVAAINWIGGATYYADSVKGRFTISRDNAKNTVYLQMNSLKPEDTAVYYCHRYSEKFYSGKDYYTRDYDYWGQGTQVTVSS

These binders were tested against T1, extracellular domain of hIFNgR2 (assay: phage biopanning and periplasmic extract ELISA (PE-ELISA)).
Experimental: Upon completion of the biopanning of Example 3, three 96-well plates of individual phage clones were isolated in order to perform periplasmic extract ELISA (PE-ELISA) on IFNgR2 coated plates to identify positive VHH binders that selectively bound IFNgR2. A 96-well plate was coated with IFNgR2 and PBS under the same conditions. Next, wells were blocked at 37° C. for 1 h. Then, 100 μl of extracted antibodies was added to each well and incubated for 1 h. Subsequently, 100 μl of anti-tag polyclonal antibody conjugated to HRP was added to each well and incubated at 37° C. for 1 h. Plates were developed with TMB substrate. The reaction was stopped by the addition of H2SO4. Absorbance at 450 nm was read on a microtiter plate reader. Antibodies with absorbance of the antigen-coated well at least threefold greater than PBS-coated control were considered to provide specific binding to IFNgR2. Positive clones were sequenced, and sequences analyzed to identify unique clonotypes
B1: binds. B2: binds. B3: binds. B4: binds. B5: binds. B6: binds. B7: binds. B8: binds. B9: binds. B10: binds. B11: binds. B12: binds. B13: binds. B14: binds. B15: binds. B16: binds. B17: binds. B18: binds. B19: binds. B20: binds. B21: binds. B22: binds. B23: binds. B24: binds. B25: binds. B26: binds.

Target: T2, extracellular domain of mIFNgR2
Test: flow cytometry, cross-reactivity
B1: binds. B2: binds. B3: binds. B4: binds. B6: binds. B7: binds. B8: binds. B9: binds. B10: binds. B11: binds. B12: binds. B13: binds. B14: binds. B15: binds. B16: binds. B17: binds. B18: binds. B19: binds. B20: binds. B21: binds. B22: binds. B23: binds. B24: binds. B25: binds. B26: binds.

Reference: US20230279128A1 (SYNTHEKINE, published 2023)
